Data on ten molecules can be found in US20220204627A1 (WILLIAM ROBERT ARATHOON LIVING TRUST DATED AUGUST 29 2016, published 2022).

For experiment [1], the target named is T1, EGFR on 293T cells overexpressing EGFR (UniProt P00533 25-1210, limits assumed).
T1 construct: whole, on cells
Nature of the experiment: FACS on 293T cells overexpressing EGFR.

Experiment [2] has as its target T1, EGFR on 293T cells overexpressing EGFR. Description: FACS on 293T-EGFR OX cells.
For experiment [3], the target named is T2, human P Glycoprotein (Pgp) / Multidrug resistance protein 1 (MDR1), gene ABCB1, on cells (human, UniProt P08183 1-1280).
T2 construct: also called KPB1; KBP1
Nature of the experiment: flow cytometry on 293T cells stably expressing human ABCB1 (293T_ABCB1_OX; the cells also carry CD47); 293T_ABCB1_OX cells: Pgp overexpressed, CD47 also present. For orientation: In flow cytometry, cells or beads pass a laser one at a time.

For experiment [4], the target named is T2, human P Glycoprotein (Pgp) / Multidrug …. Nature of the experiment: cell-based or functional assay.
Experiment [5] shares this target. Description: FACS on 293T-B1OX cells (overexpressing MDR1).
Experiment [6] has as its target T3, cynomolgus CD47 on erythrocytes (cynomolgus, UniProt A0A5F8AK49 19-323 (rhesus entry)).
T3 construct: whole, on cells; also called cynomolgus RBCs
Description: flow cytometry on cynomolgus red blood cells (cy807 RBC), Alexa Fluor 647 channel.

Experiment [7] has as its target T4, human CD47-Fc fusion protein (R&D systems) (human, UniProt Q08722 19-141).
T4 construct: Bought (R&D systems); also called Fc-tagged CD47; not shown: Fc part of the bought fusion protein
Description: ELISA, plate coated with human CD47-Fc. On the set-up: Bmax: unit not given here. For orientation: An ELISA detects its analyte on a solid surface through an enzyme-linked reagent.

Experiment [8] deals with T5, human CD47 on cells (human, UniProt Q08722 19-323).
T5 construct: also called KT14 (target name); leukocyte surface antigen CD47
Description: flow cytometry on human red blood cells (h408 RBC), Alexa Fluor 647 channel.

Experiment [9] addresses T5, human CD47 on cells. Nature of the experiment: flow cytometry on 293T_ABCB1_OX cells (anti-CD47 antibody; CD47 is endogenous on 293T cells); 293T_ABCB1_OX cells, endogenous CD47.
The target of experiment [10] is T2, human P Glycoprotein (Pgp) / Multidrug …. Nature of the experiment: flow cytometry on 293T cells stably expressing human ABCB1 (293T_ABCB1_OX; the cells also carry CD47).
Experiment [11] concerns the target T4, human CD47-Fc fusion protein (R&D …). Description: ELISA, binding to CD47. On the set-up: Bmax: unit not given here.
Experiment [12] deals with T2, human P Glycoprotein (Pgp) / Multidrug …. Nature of the experiment: flow cytometry on 293T cells stably expressing human ABCB1 (293T_ABCB1_OX).
The target of experiment [13] is T4, human CD47-Fc fusion protein (R&D …). Nature of the experiment: ELISA, binding to CD47; 15D3 HC with its own 15D3 LC (un-swapped control); ELISA.
Experiment [14] has the same target. Nature of the experiment: ELISA, Fc-tagged CD47 coated on the plate.
Experiment [15] has the same target. Description: ELISA, plate coated with human CD47-Fc.
For experiment [16] the target is unchanged. Description: ELISA, binding to CD47.
Experiment [17] addresses T2, human P Glycoprotein (Pgp) / Multidrug …. Nature of the experiment: FACS on 293T cells overexpressing MDR1 (column MDR1 FACS).

B1: anti-EGFR antibody necitumumab (antibody, human IgG1, kappa, V domains shown)
VH: QVQLQESGPGLVKPSQTLSLICTVSGGSISSGDYYWSWIRQPPGKGLEWIGYIYYSGSTDYNPSLKSRVTMSVDTSKNQFSLKVNSVTAADTAVYYCARVSIFGVGTFDYWGQGTLVTVSS
VL: EIVMTQSPATLSLSPGERATLSCRASQSVSSYLAWYQQKPGQAPRLLIYDASNRATGIPARFSGSGSGTDFTLTISSLEPEDFAVYYCHQYGSTPLTFGGGTKAEIKR
notes: Heavy chain copied as printed in T0103; also called KT3-2
One may read the EC50 as the concentration that produces a half-maximal response. As to B1, the EC50 in experiment [1] is 0.044 nM; in [2] it was 0.13 nM.

B2: Ab1 (15D3 IgG1 DD / KT14 IgG1 KK / MRK16 VL-Hz1) (bispecific antibody, V domains shown)
VH 1: EVKVVESGGVLVRPGGSLKLSCAASGFTFSRYTMSWVRQTPEKRLEWVATISSGGGNTYYPDSVKGRFTVSRDNAMSSLYLQMSSLRSEDTALYYCARYGAGDAWFAYWGQGTLVTVSA
VH 2: QVQLVQSGAEVKKPGASVKVSCKASGYTFTNYNMHWVRQAPGQRLEWMGTIYPGNDDTSYNQKFKDRVTITADTSASTAYMELSSLRSEDTAVYYCARGGYRAMDYWGQGTLVTVSS
VL: DIVMTQTPLSSPVTLGQPASISCRSSQSIVHSTGQTYLEWYQQRPGQPPRLLIYKISNRFSGVPDRFSGSGAGTDFTLKISRVEAEDVGVYYCFQASHFPRTFGQGTKLEIK
notes: Human IgG1 heavy chains with DD (K392D, K409D) on the 15D3 arm and KK (E356K, D399K) on the KT14 (5F9) arm; kappa light chain
As for B2, the EC50 in [3] stood at 75.5 nM. Further, the “Vincristine IC50 (nM) on N6/ADR cells with antibody at 50 ug/mL” value (“Vincristine IC50 (nM) on N6/ADR cells” for short) in experiment [4] was determined as 0.002 nM.

B3: 15D3 DD HC::necitumumab KK HC::MRK16 LC (bispecific antibody, IgG1, V domains shown)
VH 1: EVKVVESGGVLVRPGGSLKLSCAASGFTFSRYTMSWVRQTPEKRLEWVATISSGGGNTYYPDSVKGRFTVSRDNAMSSLYLQMSSLRSEDTALYYCARYGAGDAWFAYWGQGTLVTVSA
VH 2: QVQLQESGPGLVKPSQTLSLICTVSGGSISSGDYYWSWIRQPPGKGLEWIGYIYYSGSTDYNPSLKSRVTMSVDTSKNQFSLKVNSVTAADTAVYYCARVSIFGVGTFDYWGQGTLVTVSS
VL: DVLMTQTPVSLSVSLGDQASISCRSSQSIVHSTGNTYLEWYLQKPGQSPKLLIYKISNRFSGVPDRFSGSGSGTDFTLKISRVEAEDLGVYYCFQASHFPRTFGGGTKLEIK
notes: DD = K392D and K409D, KK = E356K and D399K (EU) in the IgG1 heavy chains; common light chain; also called 15D3DD: necitumumab KK:MRK16; KT3-2KK 15D3DD 1MRK16
For the molecule B3, the EC50 is 33.1 nM in [5] and 110 nM in experiment [2].

B4: anti-CD47 antibody 5F9 (antibody, human IgG1, V domains shown)
VH: QVQLVQSGAEVKKPGASVKVSCKASGYTFTNYNMHWVRQAPGQRLEWMGTIYPGNDDTSYNQKFKDRVTITADTSASTAYMELSSLRSEDTAVYYCARGGYRAMDYWGQGTLVTVSS
VL: DIVMTQSPLSLPVTPGEPASISCRSSQSIVYSNGNTYLGWYLQKPGQSPQLLIYKVSNRFSGVPDRFSGSGSGTDFTLKISRVEADVGVYYCFQGSHVPYTFGQGTKLEIK
notes: Variable regions cloned on human IgG1 / human kappa constant regions; also called 5F9/5F9; KT14
The term Kd denotes the concentration at which binding is half-saturated. Regarding B4, the “R4 (percent of red blood cells in the positive gate R4)” value in experiment [6] is 99.8%. In experiment [7], this molecule showed a Bmax of 2.78 and a Kd of 0.00197 nM. Moreover, the “R4 (percent of red blood cells in the positive gate R4)” value with human CD47 on cells [8] is 99.9%. Moreover, a half-maximal effect in the experiment with human CD47 on cells [9] (EC50) was put at 0.3 nM.

B5: Ab5 (15D3 HC-Hz1 DD hIgG1 / KT14 IgG1 KK / MRK16 VL-Hz1) (bispecific antibody, V domains shown)
VH 1: EVQLVESGGVVVQPGGSLRLSCAASGFTFSRYTMSWVRQAPGKGLEWVATISSGGGQTYYPDSVKGRFTVSRDNSKNSLYLQMNSLRTEDTALYYCARYGAGDAWFAYWGQGTLVTVSS
VH 2: QVQLVQSGAEVKKPGASVKVSCKASGYTFTNYNMHWVRQAPGQRLEWMGTIYPGNDDTSYNQKFKDRVTITADTSASTAYMELSSLRSEDTAVYYCARGGYRAMDYWGQGTLVTVSS
VL: DIVMTQTPLSSPVTLGQPASISCRSSQSIVHSTGQTYLEWYQQRPGQPPRLLIYKISNRFSGVPDRFSGSGAGTDFTLKISRVEAEDVGVYYCFQASHFPRTFGQGTKLEIK
notes: Human IgG1 heavy chains with DD on the 15D3 arm and KK on the KT14 (5F9) arm; kappa light chain
Turning to B5, a half-maximal response in [10] (EC50) required 137 nM. In addition, in [4], the “Vincristine IC50 (nM) on N6/ADR cells” value was 0.0589 nM.

B6: anti-MDR1 antibody 15D3 (recombinant, human IgG1/Kappa) (antibody, V domains shown)
VH: EVKVVESGGVLVRPGGSLKLSCAASGFTFSRYTMSWVRQTPEKRLEWVATISSGGGNTYYPDSVKGRFTVSRDNAMSSLYLQMSSLRSEDTALYYCARYGAGDAWFAYWGQGTLVTVSA
VL: DVLMTQTPLSLPVSLGDQASISCRSSQSIVHSTGNTYLEWYLQKPGQSPKLLIYKVSNRFSGVPDRFSGSGSGTDFTLKISRLEAEDLGVYYCFQGSHFPRTFGGGTRLEIK
notes: also called 15D3/15D3
Consider B6, for which the concentration giving a half-maximal response (EC50) in experiment [5] is 25.1 nM; in [12], 14.6 nM. In experiment [11], this molecule gave a Bmax of 3.2. Also, binding in experiment [13] was characterised by a dissociation constant (Kd) of 10.9 nM. For the same molecule, the “Vincristine IC50 (nM) on N6/ADR cells” value in experiment [4] was 0.466 nM.

B7: KBisP1.1 bispecific antibody (15D3 IgG1 DD/5F9 IgG1 KK/MRK16) (bispecific antibody, V domains shown)
VH 1: EVKVVESGGVLVRPGGSLKLSCAASGFTFSRYTMSWVRQTPEKRLEWVATISSGGGNTYYPDSVKGRFTVSRDNAMSSLYLQMSSLRSEDTALYYCARYGAGDAWFAYWGQGTLVTVSA
VH 2: QVQLVQSGAEVKKPGASVKVSCKASGYTFTNYNMHWVRQAPGQRLEWMGTIYPGNDDTSYNQKFKDRVTITADTSASTAYMELSSLRSEDTAVYYCARGGYRAMDYWGQGTLVTVSS
VL: DVLMTQTPVSLSVSLGDQASISCRSSQSIVHSTGNTYLEWYLQKPGQSPKLLIYKISNRFSGVPDRFSGSGSGTDFTLKISRVEAEDLGVYYCFQASHFPRTFGGGTKLEIK
notes: 15D3 VH on human IgG1 with K392D and K409D (DD), 5F9 VH on human IgG1 with E356K and D399K (KK), EU numbering; also called KNJYBisP1.1; KBis1.1
In experiment [14], B7 displayed a Kd of 145 nM. In addition, the “R4 (percent of red blood cells in the positive gate R4)” value was found to be 0.483% in experiment [6] and 0.609% with human CD47 on cells [8]. In addition, the binding result in [6] was “no binding”. This molecule showed an EC50 in [3] of 40.3 nM. The “Vincristine IC50 (nM) on N6/ADR cells” value in [4] was 0.0461 nM.

B8: 5F9/MRK16 (anti-CD47 antibody with two 5F9 heavy chains and two MRK16 light chains) (antibody, human IgG1, V domains shown)
VH: QVQLVQSGAEVKKPGASVKVSCKASGYTFTNYNMHWVRQAPGQRLEWMGTIYPGNDDTSYNQKFKDRVTITADTSASTAYMELSSLRSEDTAVYYCARGGYRAMDYWGQGTLVTVSS
VL: DVLMTQTPVSLSVSLGDQASISCRSSQSIVHSTGNTYLEWYLQKPGQSPKLLIYKISNRFSGVPDRFSGSGSGTDFTLKISRVEAEDLGVYYCFQASHFPRTFGGGTKLEIK
notes: Human IgG1 / kappa constant regions; also called KT14/MRK16 monoclonal; KT14_MRK16
With B8, in [6], the “R4 (percent of red blood cells in the positive gate R4)” value worked out at 0.717% and the binding result is listed as “no binding”. In [7], this molecule registered a Bmax of 2.94 and a Kd of 0.17 nM. Moreover, the “R4 (percent of red blood cells in the positive gate R4)” value in the experiment with human CD47 on cells [8] amounted to 0.708%. Besides, the “fold decrease in affinity against the un-swapped 5F9 control” value in experiment [15] amounted to 100 fold.

B9: 15D3/MRK16 (anti-MDR1 antibody with two 15D3 heavy chains and two MRK16 light chains) (antibody, human IgG1, V domains shown)
VH: EVKVVESGGVLVRPGGSLKLSCAASGFTFSRYTMSWVRQTPEKRLEWVATISSGGGNTYYPDSVKGRFTVSRDNAMSSLYLQMSSLRSEDTALYYCARYGAGDAWFAYWGQGTLVTVSA
VL: DVLMTQTPVSLSVSLGDQASISCRSSQSIVHSTGNTYLEWYLQKPGQSPKLLIYKISNRFSGVPDRFSGSGSGTDFTLKISRVEAEDLGVYYCFQASHFPRTFGGGTKLEIK
notes: Human IgG1 / kappa constant regions; also called 15D3/MRK16 monoclonal; a15D3:MRK16 antibody
In experiment [11], B9 had a Bmax of 3.94 and a Kd of 229 nM. Besides, the “fold decrease in affinity against the un-swapped 15D3 control” value in experiment [16] was roughly 20 fold.

B10: UIC2 DD HC::cetuximab KK HC::MRK16 LC (bispecific antibody, V domains shown)
VH 1: AVQLQQSGPELVKTGASVKISCKASGYSFSNYYIHWVKQSHGKSLEWIGFISCYNGATFYNQKFKGKATFTVDTSSSTAYMKFNSLTFEDSAVYYCARLPIQFGNFYPMDYWGQGTSVTVSS
VH 2: not shown
VL: DVLMTQTPVSLSVSLGDQASISCRSSQSIVHSTGNTYLEWYLQKPGQSPKLLIYKISNRFSGVPDRFSGSGSGTDFTLKISRVEAEDLGVYYCFQASHFPRTFGGGTKLEIK
notes: DD / KK charge pair substitutions in the IgG1 heavy chains; common light chain
Regarding B10, the binding result in experiment [17] is “no binding”.
